Source: JP2004000045A (dated 2004)
One block for each binder: values may come before it.

Assays:
ヒト前立腺特異的膜抗原(PSMA) [1] = molecular target: T1, ヒト前立腺特異的膜抗原(PSMA) (human, UniProt Q04609 1-750); experiment: flow cytometry, 10 μg/mL, Namalwa KJM-1 cells transfected with PSMA cDNA (pAMoPSMA)
T1 construct: whole, on cells; also called PSMA; ヒトPSMA

ヒト前立腺特異的膜抗原(PSMA) [2] = molecular target: T1, ヒト前立腺特異的膜抗原(PSMA); experiment: flow cytometry, 10 μg/mL, LNCaP cells

T1 sequence (Q04609 whole entry): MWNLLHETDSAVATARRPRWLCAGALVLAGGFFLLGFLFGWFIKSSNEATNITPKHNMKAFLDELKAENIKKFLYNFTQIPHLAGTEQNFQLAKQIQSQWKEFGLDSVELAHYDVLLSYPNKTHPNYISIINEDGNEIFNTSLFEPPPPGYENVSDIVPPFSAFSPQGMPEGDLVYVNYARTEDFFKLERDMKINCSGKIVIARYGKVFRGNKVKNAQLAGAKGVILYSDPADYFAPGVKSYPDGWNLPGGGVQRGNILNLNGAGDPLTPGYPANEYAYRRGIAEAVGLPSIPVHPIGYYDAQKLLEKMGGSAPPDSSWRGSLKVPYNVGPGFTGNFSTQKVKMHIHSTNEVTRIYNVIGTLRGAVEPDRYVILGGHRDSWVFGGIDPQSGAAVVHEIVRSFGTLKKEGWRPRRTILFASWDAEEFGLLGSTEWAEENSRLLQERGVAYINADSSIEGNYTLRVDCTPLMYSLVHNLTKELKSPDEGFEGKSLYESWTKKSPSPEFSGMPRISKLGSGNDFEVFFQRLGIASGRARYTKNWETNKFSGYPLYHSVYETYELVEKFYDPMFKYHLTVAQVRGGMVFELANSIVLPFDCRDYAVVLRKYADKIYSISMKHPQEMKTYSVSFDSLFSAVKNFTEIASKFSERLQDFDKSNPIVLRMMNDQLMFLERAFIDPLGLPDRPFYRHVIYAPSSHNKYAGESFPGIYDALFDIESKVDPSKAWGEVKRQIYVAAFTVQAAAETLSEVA

binding result (ヒト前立腺特異的膜抗原(PSMA) [1]): binds
B1: 抗PSMAマウス抗体2C9 (antibody, V domains shown)
VH: DVHLQESGPGLVKPSQSLSLTCTVTGYSITSDYAWNWIRQFPGNKLEWMGYISFSGSTSYNPSLKSRISVTRDTSKNQFFLQLNSVTTEDTATYYCARWNYYGSSHVWFAYWGQGTLVTVSA
VL: DIKMTQSPSSMYASLGERVTITCKASQDIYSYLIWFQQKPGKSPKTLIYRANRLVDGVPSRFSGSGSGQDYSLTISSLEYEDMGIYYCLQYDEFATFGSGTKLEMKR
notes: Whole mouse antibody from hybridoma; also called マウスモノクローナル抗体2C9; 2C9

binding result (ヒト前立腺特異的膜抗原(PSMA) [2]): binds
B2: アドリアマイシン結合抗PSMAキメラ抗体ADM−KM2777 (antibody, human IgG1, V domains shown)
VH: B1 VH
VL: B1 VL
modifications: as for the heavy chain: linker on amino groups, sites not stated; adriamycin-(Gly-Pro)-PEG linker (PEG average MW about 2,000) coupled through NHS ester to amino groups of the antibody; on average 2.5 ADM per antibody molecule; sites not stated
notes: also called ADM-KM2777

binding result (ヒト前立腺特異的膜抗原(PSMA) [2]): binds
B3: 抗PSMAキメラ抗体KM2777 (antibody, human IgG1, V domains shown)
VH: B1 VH
VL: B1 VL
notes: Human-type chimeric antibody: 2C9 VH joined to human IgG1 CH and 2C9 VL joined to human kappa CL (vector pKANTEX93), produced in YB2/0 cells; also called KM2777; 抗PSMAヒト型キメラ抗体
